Experimental data as given in article PMC11109279, “Heliorhodopsin-mediated light-modulation of ABC transporter” (Nature Communications, 2024).

Columns and labels:
OcHeR = target: T1, OcHeR (Ornithinimicrobium cerasi, UniProt A0A285W045); assay: UV-visible absorption spectroscopy of purified pigment; type: binding; details: covalent; Schiff base to K252; neutral pH
T1 construct: gene SAMN05421879_12810; purified from E. coli C43(DE3) grown with all-trans-retinal; DDM, Ni-NTA; homodimer
T1 sequence (A0A285W045 1-266): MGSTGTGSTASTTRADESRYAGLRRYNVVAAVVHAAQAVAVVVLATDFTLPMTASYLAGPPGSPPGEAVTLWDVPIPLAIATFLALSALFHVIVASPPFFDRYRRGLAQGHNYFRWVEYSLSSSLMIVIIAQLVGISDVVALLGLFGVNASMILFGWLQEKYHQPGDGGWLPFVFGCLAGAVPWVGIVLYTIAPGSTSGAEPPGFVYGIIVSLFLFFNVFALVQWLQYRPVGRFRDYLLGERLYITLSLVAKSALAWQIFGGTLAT

[1] = target: heterodimeric multidrug resistance ABC transporter OmrDE (Omithinimicrobium cerasi strain USBA17B2); assay: ITC; OcHeR injected into the Omr protein; 25 °C, 500 rpm; buffer SD; MicroCal ITC200; one site binding model (sequential binding site model for R233Q); perfect saturation was not achieved
OmrDE [2] = target: T2, OmrDE (Ornithinimicrobium cerasi, UniProt A0A285VW85+A0A285VWG3); assay: ATP hydrolysis, colorimetric Pi (phosphomolybdate); type: biochemical
T2 construct: gene SAMN05421879_12812; co-expressed heterodimer of two half-transporters; codon-optimized, E. coli C43(DE3), DDM-solubilized, Ni-NTA

OmrDE [3] = target: T2, OmrDE; assay: ATP hydrolysis, colorimetric Pi (phosphomolybdate); type: biochemical; details: read-out: Km (mM, ATP); Mg-ATP (MgSO4:ATP 1.5:1), pH 7.0, 25 °C, 0.02% DDM; no OcHeR
Description: ATP hydrolysis, colorimetric Pi (phosphomolybdate) on OmrDE

OmrDE with OcHeR WT = target: T3, OmrDE with OcHeR WT (Ornithinimicrobium cerasi, UniProt A0A285VW85+A0A285VWG3); assay: ATP hydrolysis, colorimetric Pi (phosphomolybdate); type: biochemical; details: read-out: Km (mM, ATP); Mg-ATP (MgSO4:ATP 1.5:1), pH 7.0, 25 °C, 0.02% DDM; OcHeR WT 1:1, dark
T3 construct: gene SAMN05421879_12812; E. coli C43(DE3), DDM, Ni-NTA; with Heliorhodopsin
T3 sequence (A0A285VW85 1-577): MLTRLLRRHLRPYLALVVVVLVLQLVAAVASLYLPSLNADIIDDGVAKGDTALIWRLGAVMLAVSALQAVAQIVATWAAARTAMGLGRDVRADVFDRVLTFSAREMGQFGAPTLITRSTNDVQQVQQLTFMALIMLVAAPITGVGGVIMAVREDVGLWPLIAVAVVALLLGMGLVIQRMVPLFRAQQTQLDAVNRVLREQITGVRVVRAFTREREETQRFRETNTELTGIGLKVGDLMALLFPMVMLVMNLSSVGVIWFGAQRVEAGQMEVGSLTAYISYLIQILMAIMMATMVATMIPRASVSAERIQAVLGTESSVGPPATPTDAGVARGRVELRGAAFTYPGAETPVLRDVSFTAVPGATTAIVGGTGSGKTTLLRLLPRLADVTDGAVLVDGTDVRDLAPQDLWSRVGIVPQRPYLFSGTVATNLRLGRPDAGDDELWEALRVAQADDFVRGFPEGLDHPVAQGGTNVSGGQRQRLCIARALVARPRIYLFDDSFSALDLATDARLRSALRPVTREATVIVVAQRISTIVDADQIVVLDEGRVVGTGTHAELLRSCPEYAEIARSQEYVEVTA
T3 sequence (A0A285VWG3 1-661): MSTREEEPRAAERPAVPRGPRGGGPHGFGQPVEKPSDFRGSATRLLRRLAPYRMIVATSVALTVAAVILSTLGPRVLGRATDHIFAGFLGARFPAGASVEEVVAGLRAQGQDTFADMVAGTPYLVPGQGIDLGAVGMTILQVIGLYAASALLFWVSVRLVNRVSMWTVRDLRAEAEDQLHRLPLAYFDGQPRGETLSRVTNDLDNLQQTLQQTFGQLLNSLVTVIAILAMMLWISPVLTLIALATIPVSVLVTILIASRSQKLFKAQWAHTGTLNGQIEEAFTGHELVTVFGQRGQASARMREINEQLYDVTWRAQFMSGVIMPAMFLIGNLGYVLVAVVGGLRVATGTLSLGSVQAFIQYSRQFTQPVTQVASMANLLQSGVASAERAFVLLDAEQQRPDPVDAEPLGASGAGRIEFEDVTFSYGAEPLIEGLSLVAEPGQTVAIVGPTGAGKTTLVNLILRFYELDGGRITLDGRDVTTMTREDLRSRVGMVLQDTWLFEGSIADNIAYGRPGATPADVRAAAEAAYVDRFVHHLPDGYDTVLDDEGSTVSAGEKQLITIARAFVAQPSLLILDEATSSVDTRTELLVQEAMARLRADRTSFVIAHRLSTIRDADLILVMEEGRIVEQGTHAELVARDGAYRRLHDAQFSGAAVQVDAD
T3 sequence (A0A285W045 1-266 partner): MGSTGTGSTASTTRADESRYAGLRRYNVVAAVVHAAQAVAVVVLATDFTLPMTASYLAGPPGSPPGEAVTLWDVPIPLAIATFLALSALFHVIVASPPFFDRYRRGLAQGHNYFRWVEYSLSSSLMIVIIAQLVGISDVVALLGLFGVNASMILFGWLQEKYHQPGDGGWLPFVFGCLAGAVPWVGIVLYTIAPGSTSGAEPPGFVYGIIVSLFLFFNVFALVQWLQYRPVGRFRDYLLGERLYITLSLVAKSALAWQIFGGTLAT
Description: ATP hydrolysis, colorimetric Pi (phosphomolybdate) on OmrDE with OcHeR WT

Glu118 (position 118, …) = assay: UV-vis; details: not stated for the titration. Purified protein was kept in buffer SD with 150 mM NaCl.; not stated for the titration. Purification buffer SD was 150 mM NaCl, 50 mM Tris-HCl pH 7.0, 0.02% DDM. pH was adjusted by adding HCl and NaOH.; Dark/ground state, retinal-bound, detergent-solubilised, without OmrDE
[4] = target: T4, heterodimeric multidrug resistance ABC transporter OmrDE (Omithinimicrobium cerasi strain USBA17B2, UniProt A0A285VW85 1-577; A0A285VWG3 1-661); assay: cell-based or functional assay
T4 sequence (looked up) 1: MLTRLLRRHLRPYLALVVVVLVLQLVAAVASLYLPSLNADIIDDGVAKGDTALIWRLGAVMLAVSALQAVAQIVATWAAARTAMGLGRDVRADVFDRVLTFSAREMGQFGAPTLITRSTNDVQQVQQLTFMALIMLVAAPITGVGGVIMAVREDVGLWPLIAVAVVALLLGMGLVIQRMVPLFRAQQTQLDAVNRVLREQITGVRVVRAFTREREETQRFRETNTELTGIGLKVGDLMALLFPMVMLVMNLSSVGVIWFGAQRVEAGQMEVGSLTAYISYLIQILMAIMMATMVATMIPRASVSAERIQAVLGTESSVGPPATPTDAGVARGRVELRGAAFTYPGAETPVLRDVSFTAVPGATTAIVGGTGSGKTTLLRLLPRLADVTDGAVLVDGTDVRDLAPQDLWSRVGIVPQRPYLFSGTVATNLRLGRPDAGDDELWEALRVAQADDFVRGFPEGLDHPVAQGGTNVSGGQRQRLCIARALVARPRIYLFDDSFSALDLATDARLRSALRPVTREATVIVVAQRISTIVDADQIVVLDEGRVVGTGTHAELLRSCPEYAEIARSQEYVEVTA
T4 sequence (looked up) 2: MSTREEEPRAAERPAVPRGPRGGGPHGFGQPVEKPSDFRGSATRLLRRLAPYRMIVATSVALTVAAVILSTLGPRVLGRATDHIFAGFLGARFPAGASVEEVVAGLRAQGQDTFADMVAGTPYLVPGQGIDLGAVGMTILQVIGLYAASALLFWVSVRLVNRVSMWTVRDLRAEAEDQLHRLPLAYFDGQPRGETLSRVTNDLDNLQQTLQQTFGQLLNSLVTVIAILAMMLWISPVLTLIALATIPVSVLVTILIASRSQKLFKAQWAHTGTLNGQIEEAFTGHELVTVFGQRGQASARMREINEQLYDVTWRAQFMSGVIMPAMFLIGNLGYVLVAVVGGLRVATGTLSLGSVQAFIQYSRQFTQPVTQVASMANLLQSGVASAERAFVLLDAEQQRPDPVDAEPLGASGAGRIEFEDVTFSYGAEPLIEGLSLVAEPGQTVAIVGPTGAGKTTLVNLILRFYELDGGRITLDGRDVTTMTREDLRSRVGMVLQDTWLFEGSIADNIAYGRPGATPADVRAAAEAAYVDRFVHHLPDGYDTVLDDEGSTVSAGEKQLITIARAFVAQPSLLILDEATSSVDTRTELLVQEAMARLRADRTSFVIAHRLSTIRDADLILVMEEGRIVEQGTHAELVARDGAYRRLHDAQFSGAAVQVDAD

[5] = target: T5, Omithinimicrobium cerasi strain USBA17B2 heliorhodopsin (OcHeR) WT (Omithinimicrobium cerasi strain USBA17B2, UniProt A0A285W045 1-266, retinal Schiff base linked to K252); assay: ITC; OcHeR injected into the Omr protein; 25 °C, 500 rpm; buffer SD; MicroCal ITC200; one site binding model (sequential binding site model for R233Q); perfect saturation was not achieved; details: both partners purified
T5 construct: gene codon-optimized for E. coli and chemically synthesized; source: E. coli C43 (DE3), purified (DDM-solubilized membrane fraction, Ni2+-NTA agarose)
T5 sequence (looked up): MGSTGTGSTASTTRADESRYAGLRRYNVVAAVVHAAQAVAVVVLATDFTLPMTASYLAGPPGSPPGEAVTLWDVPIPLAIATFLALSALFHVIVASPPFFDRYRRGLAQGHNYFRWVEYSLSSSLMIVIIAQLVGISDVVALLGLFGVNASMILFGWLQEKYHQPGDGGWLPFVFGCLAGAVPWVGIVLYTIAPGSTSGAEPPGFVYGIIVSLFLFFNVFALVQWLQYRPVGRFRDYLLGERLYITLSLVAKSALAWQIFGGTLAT

## CC1=C(/C=C/C(C)=C/C=C/C(C)=C/C=O)C(C)(C)CCC1 [all-trans-retinal]
OcHeR
  retinal attachment site: retinal Schiff base linked to K252 of OcHeR

## OcHeR R235Q (natural protein)
[1]
  Kd: 26 µM
  dH: 2.4 kcal/mol

## OcHeR R229Q (natural protein)
[1]
  Kd: 5.1 µM
  dH: 8.6 kcal/mol

## N=C(N)c1ccc(-c2cc3ccc(C(=N)N)cc3[nH]2)cc1 [DAPI]
OmrDE [2]
  IC50: 47.4 µM

## Nc1ncnc2c1ncn2[C@@H]1O[C@H](COP(=O)(O)OP(=O)(O)OP(=O)(O)O)[C@@H](O)[C@H]1O [ATP]
OmrDE [3]
  Km: 19.2 ± 12.3 mM
OmrDE with OcHeR WT
  Km: 10.4 ± 7 mM

## OcHeR R233Q (natural protein)
[1]
  Kd of the first binding (sequential binding site model): 42.9 µM
  Kd of the second binding (sequential binding site model): 25.3 µM
  dH of the first binding (sequential binding site model): 5.9 kcal/mol
  dH of the second binding (sequential binding site model): 38.7 kcal/mol

## OcHeR W225A (natural protein)
[1]
  Kd: 16.9 µM
  dH: 11.8 kcal/mol

B1: Heliorhodopsin OcHeR (Ornithinimicrobium cerasi strain USBA17B2 (spelled 'Omithinimicrobium cerasi' in the main text)) (protein)
chain: MGSTGTGSTASTTRADESRYAGLRRYNVVAAVVHAAQAVAVVVLATDFTLPMTASYLAGPPGSPPGEAVTLWDVPIPLAIATFLALSALFHVIVASPPFFDRYRRGLAQGHNYFRWVEYSLSSSLMIVIIAQLVGISDVVALLGLFGVNASMILFGWLQEKYHQPGDGGWLPFVFGCLAGAVPWVGIVLYTIAPGSTSGAEPPGFVYGIIVSLFLFFNVFALVQWLQYRPVGRFRDYLLGERLYITLSLVAKSALAWQIFGGTLAT
Glu118 (position 118, …)
  pKa: 2.9

B2: OcHeR R102Q (natural protein)
chain: MGSTGTGSTASTTRADESRYAGLRRYNVVAAVVHAAQAVAVVVLATDFTLPMTASYLAGPPGSPPGEAVTLWDVPIPLAIATFLALSALFHVIVASPPFFDQYRRGLAQGHNYFRWVEYSLSSSLMIVIIAQLVGISDVVALLGLFGVNASMILFGWLQEKYHQPGDGGWLPFVFGCLAGAVPWVGIVLYTIAPGSTSGAEPPGFVYGIIVSLFLFFNVFALVQWLQYRPVGRFRDYLLGERLYITLSLVAKSALAWQIFGGTLAT
modifications: retinal Schiff base linked to K252
[4]
  kcat/Km of ATP hydrolysis of purified OmrDE with OcHeR R102Q (1:1), absence of light: 21.4 M^−1 S^−1
  kcat/Km of ATP hydrolysis of purified OmrDE with OcHeR R102Q (1:1), presence of light (532 nm): 18.1 M^−1 S^−1

B3: NBD-truncated OmrDE (OmrD^tcE^tc) (complex)
chain 1: MLTRLLRRHLRPYLALVVVVLVLQLVAAVASLYLPSLNADIIDDGVAKGDTALIWRLGAVMLAVSALQAVAQIVATWAAARTAMGLGRDVRADVFDRVLTFSAREMGQFGAPTLITRSTNDVQQVQQLTFMALIMLVAAPITGVGGVIMAVREDVGLWPLIAVAVVALLLGMGLVIQRMVPLFRAQQTQLDAVNRVLREQITGVRVVRAFTREREETQRFRETNTELTGIGLKVGDLMALLFPMVMLVMNLSSVGVIWFGAQRVEAGQMEVGSLTAYISYLIQILMAIMMATMVATMIPRASVSAERIQAVLGTESSVGPPATPTDAGVARGR
chain 2: MSTREEEPRAAERPAVPRGPRGGGPHGFGQPVEKPSDFRGSATRLLRRLAPYRMIVATSVALTVAAVILSTLGPRVLGRATDHIFAGFLGARFPAGASVEEVVAGLRAQGQDTFADMVAGTPYLVPGQGIDLGAVGMTILQVIGLYAASALLFWVSVRLVNRVSMWTVRDLRAEAEDQLHRLPLAYFDGQPRGETLSRVTNDLDNLQQTLQQTFGQLLNSLVTVIAILAMMLWISPVLTLIALATIPVSVLVTILIASRSQKLFKAQWAHTGTLNGQIEEAFTGHELVTVFGQRGQASARMREINEQLYDVTWRAQFMSGVIMPAMFLIGNLGYVLVAVVGGLRVATGTLSLGSVQAFIQYSRQFTQPVTQVASMANLLQSGVASAERAFVLLDAEQQRPDPVDAEPLGASGAGR
[5]
  Kd: 38.9 µM
